Patent US9963506B2, “Human-mouse chimeric anti-CD147 antibody with non-fucosylated glycosylation” (Fourth Military Medical University, priority 2015, dated 2018)

Molecular target: T1, CD147^+ A549 cells (Homo sapiens, UniProt P35613)
T1 construct: endogenous in cells; host or cells: A549 (human lung cancer cell line)
T1 sequence (P35613 22-269 isoform P35613-2 limits assumed): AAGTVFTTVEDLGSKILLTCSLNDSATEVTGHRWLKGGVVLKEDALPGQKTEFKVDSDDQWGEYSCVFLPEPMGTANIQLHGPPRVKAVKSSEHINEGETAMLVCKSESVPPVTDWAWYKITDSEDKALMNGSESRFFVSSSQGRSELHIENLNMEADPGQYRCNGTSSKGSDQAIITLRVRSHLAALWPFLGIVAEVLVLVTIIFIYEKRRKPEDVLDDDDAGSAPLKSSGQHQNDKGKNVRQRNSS
Assay: Antigen-binding activity by flow cytometry
Procedure: The antibody concentration is 0.001 μg/mL, 0.01 μg/mL, 0.1 μg/mL, 1 μg/ml and 10 μg/mL, respectively.
A549 cells (10^6 cells) were incubated with the Metuzumab (HcHAb18) and cHAb18 antibody, respectively, in PBS with 0.1% BSA at 4° C. for 1 h. After three washes in PBS with 0.1% BSA, cells were incubated with the FITC-conjugated Rabbit anti-Human IgG Fc Secondary Antibody (Pierce) at 4° C. in the dark for 45 min. Cells were then washed three times and suspended in PBS for analysis using a FACS Calibur flow cytometer (BD, New Jersey, U.S.). Relative antigen expression is reported as median fluorescence intensity (MFI).

cHAb18: human-mouse chimeric anti-CD147 antibody, variable domains from HAb18, human IgG1 constant domains, fucosylated (CHO K1)
CD147-binding ability, Metuzumab compared with cHAb18 (FIG. 4): similar
Binding to CD147^+ A549 cells (FIG. 4, 0.001-10 μg/mL): bound
